Source: article doi:10.1101/2023.05.26.542337 (bioRxiv, 2023)

Target: the molecule itself
Assay: cryo-EM structure

B1: Cas1 (type I-F, Pseudomonas aeruginosa PA14) (enzyme)
chain: MDDISPSELKTILHSKRANLYYLQHCRVLVNGGRVEYVTDEGRHSHYWNIPIANTTSLLLGTGTSITQAAMRELARAGVLVGFCGGGGTPLFSANEVDVEVSWLTPQSEYRPTEYLQRWVGFWFDEEKRLVAARHFQRARLERIRHSWLEDRVLRDAGFAVDATALAVAVEDSARALEQAPNHEHLLTEEARLSKRLFKLAAQATRYGEFVRAKRGSGGDPANRFLDHGNYLAYGLAATATWVLGIPHGLAVLHGKTRRGGLVFDVADLIKDSLILPQAFLSAMRGDEEQDFRQACLDNLSRAQALDFMIDTLKDVAQRSTVSA
Question: Does B1 bind?
Answer: binds

B2: Cas2/3 (fusion of Cas2 to the Cas3 nuclease/helicase, type I-F, Pseudomonas aeruginosa PA14) (enzyme)
chain: MNILLVSQCEKRALSETRRILDQFAERRGERTWQTPITQAGLDTLRRLLKKSARRNTAVACHWIRGRDHSELLWIVGDASRFNAQGAVPTNRTCRDILRKEDENDWHSAEDIRLLTVMAALFHDIGKASQAFQAKLRNRGKPMADAYRHEWVSLRLFEAFVGPGSSDEDWLRRLADKRETGDAWLSQLARDDRQSAPPGPFQKSRLPPLAQAVGWLIVSHHRLPNGDHRGSASLARLPAPIQSQWCGARDADAKEKAACWQFPHGLPFASAHWRARTALCAQSMLERPGLLARGPALLHDSYVMHVSRLILMLADHHYSSLPADSRLGDPNFPLHANTDRDSGKLKQRLDEHLLGVALHSRKLAGTLPRLERQLPRLARHKGFTRRVEQPRFRWQDKAYDCAMACREQAMEHGFFGLNLASTGCGKTLANGRILYALADPQRGARFSIALGLRSLTLQTGQAYRERLGLGDDDLAILVGGSAARELFEKQQERLERSGSESAQELLAENSHVHFAGTLEDGPLREWLGRNSAGNRLLQAPILACTIDHLMPASESLRGGHQIAPLLRLMTSDLVLDEVDDFDIDDLPALSRLVHWAGLFGSRVLLSSATLPPALVQGLFEAYRSGREIFQRHRGAPGRATEIRCAWFDEFSSQSSAHGAVTSFSEAHATFVAQRLAKLEQLPPRRQAQLCTVHAAGEARPALCRELAGQMNTWMADLHRCHHTEHQGRRISFGLLRLANIEPLIELAQAILAQGAPEGLHVHLCVYHSRHPLLVRSAIERQLDELLKRSDDDAAALFARPTLAKALQASTERDHLFVVLASPVAEVGRDHDYDWAIVEPSSMRSIIQLAGRIRRHRSGFSGEANLYLLSRNIRSLEGQNPAFQRPGFETPDFPLDSHDLHDLLDPALLARIDASPRIVEPFPLFPRSRLVDLEHRRLRALMLADDPPSSLLGVPLWWQTPASLSGALQTSQPFRAGAKERCYALLPDEDDEERLHFSRYEEGTWSNQDNLLRNLDLTYGPRIQTWGTVNYREELVAMAGREDLDLRQCAMRYGEVRLRENTQGWSYHPYLGFKKYN
Question: Does B2 bind?
Answer: binds
